This passage reports BiFC signal-to-noise (ratio between the treatment and control groups) results from publication PMC4657913.

Where only a bound is given, the exact number is not on record here.

This test has as its target RHDV VPg fused to the VN155 (I152L) fragment for BiFC (Rabbit hemorrhagic disease virus (RHDV) strain CHA/JX/97). As to the kind of experiment: split reporter (BiFC, NanoBiT); BiFC in RK-13 cells, pVPg-VN and peIF4E-VC; green fluorescence quantified by flow cytometry 48 h after transfection. On the technique in general: In flow cytometry, cells or beads pass a laser one at a time.

With “eIF4E fused to the VC155 fragment for BiFC (from UniProt P29338 1-217) (natural protein)”, the BiFC signal-to-noise (ratio between the treatment and control groups) was more than 3.
